Source: article doi:10.1101/2021.09.07.459239

Legend:
[1] = target: CD80 cytosolic tail peptide (20-mer); assay: ELISA
[2] = target: CD86 cytosolic tail peptide (20-mer); assay: ELISA
[3] = target: rF2-Nef protein (HIV-1 Subtype C), full length wild type (HIV-1 subtype C (F2 isolate)); assay: MST

**Q.** “rF2-Nef protein (HIV-1 Subtype C), full length wild type (natural protein)” was tested. Which fold increase of ELISA signal over CD74 peptide or no-peptide wells [1] did it give?
**A.** 4 fold

**Q.** And the fold increase of ELISA signal over CD74 peptide or no-peptide wells [2]?
**A.** 4 fold

B1: CD80 cytosolic tail peptide (20-mer) (peptide)
peptide: PRCRERRRNERLRRESVRPV
**Q.** Which Kd [3] does the source give for B1 here?
**A.** 27 µM

B2: CD86 cytosolic tail peptide (20-mer) (peptide)
peptide: LWKWKKKKRPRNSYKCGTNT
**Q.** How did the Kd [3] turn out when B2 was run?
**A.** 0.112 µM
